T1: Arabidopsis serine/threonine/tyrosine protein kinase (STYK, At2g24360) (Arabidopsis thaliana) (UniProt Q9ZQ31)
T1 sequence: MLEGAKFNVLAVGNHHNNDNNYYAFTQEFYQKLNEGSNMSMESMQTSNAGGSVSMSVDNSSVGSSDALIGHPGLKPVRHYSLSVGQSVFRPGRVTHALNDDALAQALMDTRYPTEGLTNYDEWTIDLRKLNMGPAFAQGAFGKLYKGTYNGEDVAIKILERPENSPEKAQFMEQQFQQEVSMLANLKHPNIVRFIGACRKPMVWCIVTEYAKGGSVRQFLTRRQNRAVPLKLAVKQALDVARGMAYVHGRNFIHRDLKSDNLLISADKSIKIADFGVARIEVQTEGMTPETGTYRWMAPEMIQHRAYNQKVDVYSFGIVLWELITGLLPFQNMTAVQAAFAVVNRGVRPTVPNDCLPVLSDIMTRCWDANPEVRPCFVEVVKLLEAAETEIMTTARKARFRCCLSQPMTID


Molecular target: T1, Arabidopsis serine/threonine/tyrosine protein kinase (STYK, At2g24360) (Arabidopsis thaliana)

Row | Km of STYK for CAL4 as substrate, in vitro kinase assay | Km of STYK for OLE1 as substrate, in vitro kinase assay | Binder
1 | 0.997 µM | – | Arabidopsis caleosin 4 (CAL4, At1g70670), probable peroxygenase 4 (natural protein) MASSISTGVKFVPEEDNFLQRHVAFFDRNKDGIVYPSETFQGFRAIGCGYLLSAVASVFINIGLSSKTRPGKGFSIWFPIEVKNIHLAKHGSDSGVYDKDGRFVASKFEEIFTKHAHTHRDALTNEELKQLLKANKEPNDRKGWLAGYTEWKVLHYLCKDKNGLLHKDTVRAAYDGSLFEKLEKQRSSKTSKKHP
2 | – | 0.966 µM | Arabidopsis oleosin 1 (OLE1, At4g25140), oleosin 18.5 kDa (natural protein) MADTARGTHHDIIGRDQYPMMGRDRDQYQMSGRGSDYSKSRQIAKAATAVTAGGSLLVLSSLTLVGTVIALTVATPLLVIFSPILVPALITVALLITGFLSSGGFGIAAITVFSWIYKYATGEHPQGSDKLDSARMKLGSKAQDLKDRAQYYGQQHTGGEHDRDRTRGGQHTT

From PMC5773694
